Results on 167 variants are retold here after the RNAGym collection of RNA variant scans (doi:10.7554/elife.80360).

First the molecules themselves.
B1: Twister Ribozyme (parent)
chain: AACACUGCCAAUGCCGGUCCCAAGCCCGGAUAAAAGUGGAGGGGGCGG

The variants in the data set derive from B1. The data set is described as follows: self-cleavage, relative activity (ratio to wild type); higher = more cleavage; co-transcriptional.
With A10U G28U, the self-cleavage came to 0.929. For A11C G39A the value was 0.601; for A1U G47C, 0.068; for C3G C8U, 0.389. Consider A32C G42A, for which the self-cleavage was determined as 0.289. In the case of U12C G13U it was 0.659; in that of C8A G43A, 0.177.

For C19U A34C, the self-cleavage came to 0.083.

As for A32U, the self-cleavage was 0.975. In the case of C9A G48U it was 0.451; in that of A33C G39C, 0.12.

With A2G C25U, the self-cleavage worked out at 0.128. Consider A10G G13A, for which the self-cleavage amounted to 1.09. For C5A G41U the value was 0.132.

As for A4G G17C, the self-cleavage worked out at 0.0548. In the case of A2C A40U it was 0.0387; in that of A32G A33U, 0.914; in that of A1C C14G, 0.124. Take U12G C46G: the self-cleavage is 0.757. Regarding C3U A34U, the self-cleavage came to 0.314. Take G24U G47U: the self-cleavage came out at 0.0704. In the case of A22C G38C it was 0.976; in that of A10U G39C, 0.0863; in that of A2C G47C, 0.0493. Consider C14U U37G, for which the self-cleavage was 0.845. For C14A G45U the value was 0.698; for C25U G38A, 0.581; for G7C A23U, 0.0664.

As to C27G G44A, the self-cleavage was found to be 0.0871. In the case of G16A G28C it was 0.489; in that of A35C G42A, 0.32.

Regarding G7C G48C, the self-cleavage worked out at 0.0656. Turning to G16C C20A, the self-cleavage is 0.0672. In the case of G7U C21U it was 0.0705; in that of A34U G36A, 0.157. In the case of C15U A35U, the self-cleavage came to 0.915. In the case of A32G A35U it was 0.986; in that of A11U G45C, 0.733.

C8U G47C: the self-cleavage is 0.199. On to C3A A23G, for which the self-cleavage turned out to be 0.0731. In the case of C14A G48A it was 0.868; in that of A40C G48U, 0.284. In the case of G29U G44C it was 0.858; in that of A11G G48U, 0.942. As to G7U A33U, the self-cleavage turned out to be 0.109.

Consider C5G C9A, for which the self-cleavage came to 0.167. In the case of C8U G44A it was 0.658; in that of C8G A34U, 0.553; in that of U31C U37A, 0.892.

As for U18A A30C, the self-cleavage was 0.104. As for C9U G41U, the self-cleavage is 0.187.

Turning to U12G C14A, the self-cleavage came out at 0.726. Take U31G A40C: the self-cleavage worked out at 0.224. In the case of C26A U31G it was 0.691; in that of G41U G45U, 0.25. As for C8G A40U, the self-cleavage is 0.0905. Consider C26U A33G, for which the self-cleavage is 0.17. In the case of C26U A33C it was 0.203; in that of C26U A33U, 0.266; in that of A1G C5G, 0.172. For A11U C20U the value was 1.08. In the case of U18G it was 0.0785. As to U37A G45U, the self-cleavage came to 0.617. In the case of C21U C46G it was 0.135; in that of C21U C46A, 0.107; in that of U18A U37G, 0.137. For C8A A11U the value was 0.7; for C3U A23C, 0.12. Consider G17U G29C, for which the self-cleavage is 0.0894.

On to C25G A35U, for which the self-cleavage was 0.299.

As to G7C G29C, the self-cleavage was 0.0533. In the case of C9A U18C it was 0.0799. For C19A the value was 0.384; for G17A U37C, 0.142; for U31A G43U, 0.233. In the case of C5A G36U it was 0.689; in that of G7U G29C, 0.0397. Turning to A34G G45C, the self-cleavage amounted to 0.274.

For the variant A35G G38A, the self-cleavage amounted to 0.199. In the case of A34U it was 0.915; in that of G13C A23G, 0.139. For G17A G48A the value was 0.661; for A4C A33G, 0.146.

As for A2U A30G, the self-cleavage was 0.772. For G16A C25U, the self-cleavage was found to be 0.852. On to C20G G44U, for which the self-cleavage worked out at 0.0685. For A4U A23U, the self-cleavage came to 0.0527. In the case of U12G G36A it was 0.64; in that of C8G C21G, 0.0605; in that of U31G G36A, 0.662. In the case of C19A G43A it was 0.355; in that of G7C C9U, 0.101; in that of G13A C19G, 0.123. With U6G U12A, the self-cleavage was 0.769. For U6G U12G the value was 0.343; for C3G A40G, 0.111; for A23U G44A, 0.679.

In the case of C19G G38C, the self-cleavage stood at 0.152. For the variant A10U G16C, the self-cleavage is 0.419.

For G24U C25A, the self-cleavage was 0.115. As to G13A C46G, the self-cleavage was found to be 0.848. In the case of A4G C25U it was 0.595; in that of A22C U31G, 0.987.

G7A U37C: the self-cleavage was 0.111. For A11U A40G, the self-cleavage was found to be 0.0881. For G28C A33U the value was 0.556; for A10C C27A, 0.673. In the case of A40U C46G it was 0.16. In the case of A32C G48C it was 1.12; in that of A35C G48U, 0.978; in that of C5G A23U, 0.136. Regarding C26G G41A, the self-cleavage was found to be 0.128. For U6A G38C the value was 0.594. In the case of A11G C19G it was 0.538; in that of G13C C27U, 0.0915.

Turning to A2U A11G, the self-cleavage was 0.586.

For A35G G47U, the self-cleavage was 0.81.

As for A1G C3G, the self-cleavage was determined as 0.274. For G17C G39A the value was 0.0934. As for C5U A11C, the self-cleavage was determined as 0.541. In the case of G16C G28A it was 0.194.

With C19A G36U, the self-cleavage is 0.0959. In the case of G38A G48A it was 0.998. For A11C G24C the value was 0.0648. In the case of C3U G44A it was 0.382; in that of A22U G39C, 0.115; in that of C5U U18C, 0.24. For G17C A40U, the self-cleavage is 0.0929. In the case of U6G U31C it was 0.365; in that of C21A A33C, 0.112. Regarding U12A C46G, the self-cleavage came to 1.12.

On to C15G C20A, for which the self-cleavage worked out at 0.0716. For C9A the value was 0.776; for U6C G16A, 0.318; for A34C G48U, 0.21. Consider C19U G42A, for which the self-cleavage worked out at 0.17.

With C9G A32U, the self-cleavage came out at 0.517. For the variant U18G C46U, the self-cleavage turned out to be 0.129. For C27A G28C the value was 0.323; for A40U G47A, 0.164. Take G7A G36A: the self-cleavage is 0.109.

With C3A C21U, the self-cleavage was 0.0858. In the case of U18A A33G it was 0.203.

On to U18G G24U, for which the self-cleavage came to 0.0765. In the case of C25U A32C it was 0.903; in that of C25U A32G, 0.804; in that of A10U A22C, 0.93. In the case of G24C G28A it was 0.0981; in that of C5A C19A, 0.0624; in that of C20A A32C, 0.111.

Turning to C15G C25A, the self-cleavage stood at 0.0585. For C15G C25G the value was 0.0786. In the case of C21U A35C it was 0.154; in that of A2U A40C, 0.155. For C21A G29C the value was 0.0813; for G17U G38C, 0.203. For U18G A23G, the self-cleavage stood at 0.0817.

With C19G G28U, the self-cleavage stood at 0.212. Turning to C5G G13A, the self-cleavage is 0.115. In the case of C26A G42U it was 0.109; in that of A1G G16C, 0.561; in that of A11U G41U, 0.889.

As for A1U G24C, the self-cleavage amounted to 0.0779. In the case of U6C G36U it was 0.0917.

Consider G29A G36U, for which the self-cleavage was 0.265.

Take C5G A11U: the self-cleavage was determined as 0.665.

Regarding C5G A11G, the self-cleavage came to 0.696.
